These results are taken from paper PMC4417188, “Molecular crowding enhances facilitated diffusion of two human DNA glycosylases”.

In data set [1] the target is T1, hUNG catalytic domain (Homo sapiens, UniProt P13051 94-313). The data set can be described thus: stopped-flow 2-AP fluorescence (koff/kon). The following applies: 2'-beta-fluoro-2'-deoxyuridine (Ubeta), 2-aminopurine adjacent, paired with T, 20 mM HEPES pH 7.5, 3 mM EDTA, 1 mM DTT, 0.002% Brij 35, 22 mM total Na+, with or without PEG 8K, temperature not stated for binding assays.

Data set [2] has as its target T1, hUNG catalytic domain. The data set can be described thus: fluorescence anisotropy; 20% PEG 8K; 20 mM HEPES pH 7.5, 3 mM EDTA, 1 mM DTT, 0.002% Brij 35, 22 mM total Na+; with or without PEG 8K; temperature not stated for binding assays. The following applies: protein: recombinant; label: 5'-fluorescein (FAM); (complement implied by Watson-Crick pairing).
Data set [3] concerns the target T1, hUNG catalytic domain. The data set can be described thus: fluorescence anisotropy; dilute buffer; 20 mM HEPES pH 7.5, 3 mM EDTA, 1 mM DTT, 0.002% Brij 35, 22 mM total Na+; with or without PEG 8K; temperature not stated for binding assays. The following applies: protein: recombinant; label: 5'-fluorescein (FAM); (complement implied by Watson-Crick pairing). A general note: Polarisation of emitted light reports the rotation of a fluorescent probe.

T1 sequence (P13051 94-313): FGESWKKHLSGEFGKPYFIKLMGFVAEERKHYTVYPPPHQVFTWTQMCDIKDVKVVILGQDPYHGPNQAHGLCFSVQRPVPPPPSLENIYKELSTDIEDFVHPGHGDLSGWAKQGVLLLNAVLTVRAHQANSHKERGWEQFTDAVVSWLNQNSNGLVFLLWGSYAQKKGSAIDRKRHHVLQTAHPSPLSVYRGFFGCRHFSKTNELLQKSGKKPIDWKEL

The Kd is the free concentration of one partner at which half of the binding sites on the other are occupied at equilibrium, for simple one-to-one binding. Consider “DS specific 19mer duplex (2-AP next to Ubeta)”, for which the Kd is 0.31 nM with hUNG catalytic domain [1] (5% PEG 8K); 0.2 nM in the data set with hUNG catalytic domain [1] (10% PEG 8K); 0.7 nM with hUNG catalytic domain [1] (15% PEG 8K); 1.2 nM with hUNG catalytic domain [1] (20% PEG 8K, fast phase koff used); 0.4 nM with hUNG catalytic domain [1] (dilute buffer, text of Methods gives 0.3 nM).

B1: DN nonspecific 15mer duplex (dsDNA)
DNA 1: AGGCGCATAGTCGCA
DNA 2: TGCGACTATGCGCCT
Take B1: the Kd was determined as 2300 ± 500 nM with hUNG catalytic domain [2] and 1300 ± 500 nM in the data set with hUNG catalytic domain [3].
